Results taken from patent US20220267464A1 (Hoffmann-La Roche, published 2022).

Columns and labels:
hu N(A2-B2)A-avi-His = target: T1, hu N(A2-B2)A-avi-His (human, biotin on the avi tag where used biotinylated); assay: SPR (Biacore T200), antigen on CM5 chip, Fab as analyte
T1 construct: chimeric soluble antigen; also called hu N(A2-B2)A-avi-His B; human CEA (A2 domain)
T1 chain: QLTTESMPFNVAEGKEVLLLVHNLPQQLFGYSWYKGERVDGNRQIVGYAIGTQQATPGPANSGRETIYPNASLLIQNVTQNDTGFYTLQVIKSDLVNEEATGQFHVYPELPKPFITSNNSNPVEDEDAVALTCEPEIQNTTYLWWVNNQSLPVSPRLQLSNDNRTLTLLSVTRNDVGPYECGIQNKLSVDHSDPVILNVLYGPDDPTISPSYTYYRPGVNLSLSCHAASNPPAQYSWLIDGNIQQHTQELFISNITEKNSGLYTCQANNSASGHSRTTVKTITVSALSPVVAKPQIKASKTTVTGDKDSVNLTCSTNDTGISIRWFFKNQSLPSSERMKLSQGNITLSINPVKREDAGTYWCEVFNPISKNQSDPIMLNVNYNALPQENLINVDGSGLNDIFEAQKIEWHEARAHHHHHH
Source text: Data were double-referenced against the unimmobilized flow cell 1 and a zero concentration of the analyte. The sensorgrams of the analytes were fitted to a simple 1:1 Langmuir interaction model.

[1] = target: T2, human CEACAM5 (carcinoembryonic antigen, CEA) on cells (human, UniProt P06731 35-685); assay: flow cytometry, MKN45 cells; set-up: AUC: unit not given beside the values
T2 construct: endogenous on MKN45 gastric adenocarcinoma cells; full-length cDNA stably transfected in the CHO-K1 clones; also called huCEACAM5; MKN45 cells
T2 sequence: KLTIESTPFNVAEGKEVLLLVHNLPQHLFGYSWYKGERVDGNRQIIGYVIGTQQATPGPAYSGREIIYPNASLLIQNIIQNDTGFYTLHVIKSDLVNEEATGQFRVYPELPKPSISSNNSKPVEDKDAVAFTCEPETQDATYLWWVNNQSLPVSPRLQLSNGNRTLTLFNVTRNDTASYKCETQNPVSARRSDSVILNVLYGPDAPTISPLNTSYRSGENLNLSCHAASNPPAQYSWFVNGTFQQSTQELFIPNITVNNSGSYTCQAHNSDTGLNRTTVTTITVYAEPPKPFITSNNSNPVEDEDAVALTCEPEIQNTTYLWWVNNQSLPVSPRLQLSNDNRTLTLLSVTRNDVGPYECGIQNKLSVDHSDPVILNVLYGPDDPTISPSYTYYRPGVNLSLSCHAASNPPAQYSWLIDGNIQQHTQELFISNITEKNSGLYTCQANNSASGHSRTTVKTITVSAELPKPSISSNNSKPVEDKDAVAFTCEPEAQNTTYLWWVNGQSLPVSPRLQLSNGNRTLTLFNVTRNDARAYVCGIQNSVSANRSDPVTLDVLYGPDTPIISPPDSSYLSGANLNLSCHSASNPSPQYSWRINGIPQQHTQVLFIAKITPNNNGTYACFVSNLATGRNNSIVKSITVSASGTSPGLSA

[2] = target: T2, human CEACAM5 (carcinoembryonic …); assay: flow cytometry, MKN-45 cells, goat F(ab')2 anti-human Fcγ-PE, gMFI

Row | Binder | Kd (hu N(A2-B2)A-avi-His) [nM] | AUC [1] | binding result [2]
1 | P1AE4138 (Fab, V domains shown, Fab fragment; Ckappa light chain; also called Fab derived from P1AE2167) VH: EVQLLESGGGLVQPGGSLRLSCAASGFTFTDYYMNWVRQAPGKGLEWLGFIGNKANGYTTEYSASVKGRFTISRDKSKNTLYLQMNSLRAEDTATYYCTRDRGLRFYFDYWGQGTTVTVSS VL: EIVLTQSPATLSLSPGERATLSCRASSSVTYIHWYQQKPGQAPRSWIYATSNLASGIPARFSGSGSGTDFTLTISSLEPEDFAVYYCQHWSSKPPTFGQGTKLEIK | 1.47 | – | –
2 | P1AE4142 (Fab, V domains shown, Fab fragment; also called Fab derived from P1AE2181) VH: EVQLLESGGGLVQPGGSLRLSCAASGFTFTDYYMNWVRQAPGKGLEWVGFIGNKANGYTTEYSASVKGRFTISRDKSKNTLYLQMNSLRAEDTAVYYCARDRGLRFYFDYWGQGTTVTVSS VL: EIVLTQSPATLSLSPGERATLSCRASSSVTYIHWYQQKPGSSPKSWIYATSNLASGIPARFSGSGSGTDFTLTISSLEPEDFAVYYCQHWSSKPPTFGQGTKLEIK | 2.64 | – | –
3 | P1AE4143 (Fab, V domains shown, Fab fragment; also called Fab derived from P1AE2182) VH: EVQLLESGGGLVQPGGSLRLSCAASGFTFTDYYMNWVRQAPGKGLEWVGFIGNKANGYTTEYSASVKGRFTISRDKSKNTLYLQMNSLRAEDTAVYYCARDRGLRFYFDYWGQGTTVTVSS VL: EIVLTQSPATLSLSPGERATLSCRASSSVTYIHWYQQKPGQAPRSWIYATSNLASGIPARFSGSGSGTDFTLTISSLEPEDFAVYYCQHWSSKPPTFGQGTKLEIK | 2.92 | – | –
4 | P1AE4135 (Fab, V domains shown, Fab fragment; also called Fab derived from P1AE2164) VH: EVQLLESGGGLVQPGGSLRLSCAASGFTFTDYYMNWVRQAPGKGLEWLGFIGNKANGYTTEYSASVKGRFTISRDKSKNTLYLQMNSLRAEDTATYYCTRDRGLRFYFDYWGQGTTVTVSS VL: QTVLTQSPATLSLSPGERATLSCRASSSVTYIHWYQQKPGSSPKSWIYATSNLASGIPARFSGSGSGTDYTLTISSLEPEDFAVYYCQHWSSKPPTFGQGTKLEIK | 1.7 | – | –
5 | P1AE4137 (Fab, V domains shown, Fab fragment; also called Fab derived from P1AE2166) VH: EVQLLESGGGLVQPGGSLRLSCAASGFTFTDYYMNWVRQAPGKGLEWLGFIGNKANGYTTEYSASVKGRFTISRDKSKNTLYLQMNSLRAEDTATYYCTRDRGLRFYFDYWGQGTTVTVSS VL: EIVLTQSPATLSLSPGERATLSCRASSSVTYIHWYQQKPGSSPKSWIYATSNLASGIPARFSGSGSGTDFTLTISSLEPEDFAVYYCQHWSSKPPTFGQGTKLEIK | 11.3 | – | –
6 | P1AE4140 (Fab, V domains shown, Fab fragment; also called Fab derived from P1AE2177) VH: EVQLLESGGGLVQPGGSLRLSCAASGFTFTDYYMNWVRQAPGKGLEWVGFIGNKANGYTTEYSASVKGRFTISRDNSKNTLYLQMNSLRAEDTAVYYCTRDRGLRFYFDYWGQGTTVTVSS VL: EIVLTQSPATLSLSPGERATLSCRASSSVTYIHWYQQKPGQAPRSWIYATSNLASGIPARFSGSGSGTDFTLTISSLEPEDFAVYYCQHWSSKPPTFGQGTKLEIK | 7.62 | – | –
7 | P1AE4141 (Fab, V domains shown, Fab fragment; also called Fab derived from P1AE2179) VH: EVQLLESGGGLVQPGGSLRLSCAASGFTFTDYYMNWVRQAPGKGLEWVGFIGNKANGYTTEYSASVKGRFTISRDKSKNTLYLQMNSLRAEDTAVYYCARDRGLRFYFDYWGQGTTVTVSS VL: QTVLTQSPATLSLSPGERATLSCRASSSVTYIHWYQQKPGSSPKSWIYATSNLASGIPARFSGSGSGTDYTLTISSLEPEDFAVYYCQHWSSKPPTFGQGTKLEIK | 1.83 | – | –
8 | P1AE4139 (Fab, V domains shown, Fab fragment; also called Fab derived from P1AE2176) VH: EVQLLESGGGLVQPGGSLRLSCAASGFTFTDYYMNWVRQAPGKGLEWVGFIGNKANGYTTEYSASVKGRFTISRDNSKNTLYLQMNSLRAEDTAVYYCTRDRGLRFYFDYWGQGTTVTVSS VL: EIVLTQSPATLSLSPGERATLSCRASSSVTYIHWYQQKPGSSPKSWIYATSNLASGIPARFSGSGSGTDFTLTISSLEPEDFAVYYCQHWSSKPPTFGQGTKLEIK | 7.58 | – | –
9 | P1AE4136 (Fab, V domains shown, Fab fragment; also called Fab derived from P1AE2165) VH: EVQLLESGGGLVQPGGSLRLSCAASGFTFTDYYMNWVRQAPGKGLEWLGFIGNKANGYTTEYSASVKGRFTISRDKSKNTLYLQMNSLRAEDTATYYCTRDRGLRFYFDYWGQGTTVTVSS VL: QTVLTQSPATLSLSPGERATLSCRASSSVTYIHWYQQKPGQAPRLLIYATSNLASGIPARFSGSGSGTDFTLTISSLEPEDFAVYYCQHWSSKPPTFGQGTKLEIK | 1.25 | – | –
10 | P1AE3122 (antibody, IgG1, V domains shown, huIgG1 P329G LALA; also called MFE-H27 / MFE-L24) VH: QVQLVQSGAEVKKPGASVKVSCKASGFNIKDSYMHWVRQAPGQGLEWMGWIDPENGDTEYAPKFQGRVTMTTDTSISTAYMELSRLRSDDTAVYYCARGTPTGPYYFDYWGQGTLVTVSS VL: DIQMTQSPSSLSASVGDRVTITCRASSSVSYMHWYQQKPGKAPKLLIYSTSNLASGVPSRFSGSGSGTDFTLTISSLQPEDFATYYCQQRSSYPLTFGGGTKLEIK | – | 422 | no binding (tested: about 300 nM)
11 | P1AE3123 (antibody, IgG1, V domains shown, huIgG1 P329G LALA; also called MFE-H26 / MFE-L24) VH: QVQLVQSGAEVKKPGASVKVSCKASGFNIKDSYMHWVRQAPGQGLEWMGWIDPENGGTNYAQKFQGRVTMTTDTSISTAYMELSRLRSDDTAVYYCNEGTPTGPYYFDYWGQGTLVTVSS VL: DIQMTQSPSSLSASVGDRVTITCRASSSVSYMHWYQQKPGKAPKLLIYSTSNLASGVPSRFSGSGSGTDFTLTISSLQPEDFATYYCQQRSSYPLTFGGGTKLEIK | – | 1090 | no binding (tested: about 300 nM)
12 | P1AE3124 (antibody, IgG1, V domains shown, huIgG1 P329G LALA; also called MFE-H25 / MFE-L24) VH: QVQLVQSGAEVKKPGASVKVSCKASGYTFKDSYMHWVRQAPGQGLEWMGWIDPENGDTEYAPKFQGRVTMTTDTSISTAYMELSRLRSDDTAVYYCNEGTPTGPYYFDYWGQGTLVTVSS VL: DIQMTQSPSSLSASVGDRVTITCRASSSVSYMHWYQQKPGKAPKLLIYSTSNLASGVPSRFSGSGSGTDFTLTISSLQPEDFATYYCQQRSSYPLTFGGGTKLEIK | – | 847 | no binding (tested: about 300 nM)
13 | P1AE0289 CEA (A5B7) Fab (parental murine antibody) (Fab, V domains shown, Fab fragment) VH: EVKLVESGGGLVQPGGSLRLSCATSGFTFTDYYMNWVRQPPGKALEWLGFIGNKANGYTTEYSASVKGRFTISRDKSQSILYLQMNTLRAEDSATYYCTRDRGLRFYFDYWGQGTTLTVSS VL: QTVLSQSPAILSASPGEKVTMTCRASSSVTYIHWYQQKPGSSPKSWIYATSNLASGVPARFSGSGSGTSYSLTISRVEAEDAATYYCQHWSSKPPTFGGGTKLEIK | 0.559 | – | –
